Assay results from the supplement of paper PMC12764529.
± gives the half width of the 95% confidence interval.

Legend:
[1] = folding stability dG unfold from chymotrypsin proteolysis; higher = more stable
Method in brief: (§1)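 Only designs with AlphaFold2 dimer inter-PAE above 15 were retained; each was a mini-protein under 80 residues with no cysteine, in a PA-tagged cDNA display construct. After digestion with trypsin and chymotrypsin and sequencing, K50 was inferred by Bayesian fitting of counts, and unfolding free energy was derived per protease or combined against a sequence-predicted unfolded-state K50 and a shared folded-state K50.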

[2] = folding stability dG unfold from trypsin proteolysis; higher = more stable
Method in brief: as §1

[3] = folding stability dG unfold (combined trypsin and chymotrypsin); higher = more stable
Method in brief: as §1

For “SAGGSAGGSKPKRRRVQIELPLPPGKPITPDHIREFMRPFGAPKVEITNIHPTNGRWIITFELSAGGSAGGS [r20_79_TrROS]”, the “folding stability dG unfold” value [1] was 10.9 ± 0.46 kJ/mol, the “folding stability dG unfold” value [2] was 8.28 ± 0.13 kJ/mol and the “folding stability dG unfold” value [3] was 10.1 ± 0.586 kJ/mol.

In the case of “SAGGSAGGSKPLVIRVRLTYYDEKTGKKVKEVELTLTVSEEEAKKLAEELKKLYPNVEVEIFPSAGGSAGGS [r12_342_TrROS_Hall]”, the “folding stability dG unfold” value [1] is reported as 19.5 ± 0.544 kJ/mol, the “folding stability dG unfold” value [2] is reported as 18.3 ± 2.22 kJ/mol and the “folding stability dG unfold” value [3] is reported as 20.2 ± 1.63 kJ/mol.

In the case of “SAGGSAGGSKPPPTVEIEITLEDGTVLRIRVTPDRIEIENLETGKRFTFPPGATIEIEVRKLPSAGGSAGGS [r12_227_TrROS_Hall]”, the “folding stability dG unfold” value [1] is reported as 15.6 ± 2.05 kJ/mol, the “folding stability dG unfold” value [2] is reported as 16.5 ± 3.43 kJ/mol and the “folding stability dG unfold” value [3] is reported as 17.5 ± 2.34 kJ/mol.

With “SAGGSAGGSKPPVKTIPRWIPFPPGQTPNELVDELRKLFPPGMEVDVEYDPEPGYVRVSITFRSAGGSAGGS [r12_12_TrROS]” the “folding stability dG unfold” value [1] was 7.79 ± 0.197 kJ/mol, the “folding stability dG unfold” value [2] was 9.14 ± 0.176 kJ/mol and the “folding stability dG unfold” value [3] was 8.61 ± 0.406 kJ/mol.

With “SAGGSAGGSKPRLVLEIKIKAESEEEAREEVEKALQEKFGLKIKSVEIEREEDYITVRVEIEPSAGGSAGGS [r12_265_TrROS_Hall]” the “folding stability dG unfold” value [1] was 8.36 ± 0.255 kJ/mol, the “folding stability dG unfold” value [2] was 9.44 ± 0.339 kJ/mol and the “folding stability dG unfold” value [3] was 8.01 ± 0.962 kJ/mol.

For “SAGGSAGGSKQILKKLGLPPGKEVQIMMTPNDMNELRDLPGIKSIKMEPRPDGYYQHSIRIDNSAGGSAGGS [r12_750_TrROS]”, the “folding stability dG unfold” value [1] was -1.61 ± 1.38 kJ/mol, the “folding stability dG unfold” value [2] was -5.47 ± 2.47 kJ/mol and the “folding stability dG unfold” value [3] was -2.44 ± 2.05 kJ/mol.

For “SAGGSAGGSKTLKIEIPVEEESEEEARKKIKEALKELGIKEITEEDIKIERKEDGTLRAEIKLSAGGSAGGS [r12_122_TrROS_Hall]”, the “folding stability dG unfold” value [1] was 1.44 ± 0.46 kJ/mol, the “folding stability dG unfold” value [2] was 4.13 ± 0.351 kJ/mol and the “folding stability dG unfold” value [3] was 3.42 ± 0.711 kJ/mol.

For “SAGGSAGGSKTLVIEEDGELYKVRITNKNGKEIEIVMSADEIKKLPPNAKVEVEKIKLPEKKPSAGGSAGGS [r12_419_TrROS_Hall]”, the “folding stability dG unfold” value [1] was 6.38 ± 0.28 kJ/mol, the “folding stability dG unfold” value [2] was 4.92 ± 0.117 kJ/mol and the “folding stability dG unfold” value [3] was 5.69 ± 0.259 kJ/mol.

For “SAGGSAGGSKVDIVKVEVYEVESPLGGRYYLVKVYRKDGRPILVLASPSTTPEEVLKKAEEAESAGGSAGGS [r12_1047_TrMRF]”, the “folding stability dG unfold” value [1] was 11.6 ± 0.222 kJ/mol, the “folding stability dG unfold” value [2] was 8.18 ± 0.205 kJ/mol and the “folding stability dG unfold” value [3] was 10.4 ± 0.502 kJ/mol.

With “SAGGSAGGSKVIPITFPKSLSLEQIEDFVRKIAAESGAKVKSVKIVDVDPENNRVTVLVEVEGSAGGSAGGS [r12_168_TrMRF]” the “folding stability dG unfold” value [1] was 14 ± 0.159 kJ/mol, the “folding stability dG unfold” value [2] was 13.2 ± 0.176 kJ/mol and the “folding stability dG unfold” value [3] was 13.8 ± 0.331 kJ/mol.

In the case of “SAGGSAGGSKWIKIMYMIPPGDPEEIIEKLLPPGYKIEEVEVQRMPGYFMVDITIRDEDPDAISAGGSAGGS [r12_445_TrROS]”, the “folding stability dG unfold” value [1] is reported as 9.91 ± 0.669 kJ/mol, the “folding stability dG unfold” value [2] is reported as 10.3 ± 0.46 kJ/mol and the “folding stability dG unfold” value [3] is reported as 9.92 ± 0.879 kJ/mol.

For “SAGGSAGGSLIPADRTYKVTVTVEGDKVILTLTDPTSSVTYTLTLDIGPEKVPAGSTLTYTGSSAGGSAGGS [r12_525_JUSTAS]”, the “folding stability dG unfold” value [1] was 7.12 ± 0.795 kJ/mol, the “folding stability dG unfold” value [2] was 5.11 ± 0.314 kJ/mol and the “folding stability dG unfold” value [3] was 6.51 ± 1.05 kJ/mol.

For “SAGGSAGGSLVIPLPNGGRIEVLEVGEDYVLVRLVDPMPGTNKPRVSEIRLKLPPLKPPPPDKSAGGSAGGS [r12_959_TrMRF]”, the “folding stability dG unfold” value [1] was 8.96 ± 0.134 kJ/mol, the “folding stability dG unfold” value [2] was 9.89 ± 0.305 kJ/mol and the “folding stability dG unfold” value [3] was 9.52 ± 0.46 kJ/mol.

With “SAGGSAGGSMALPPDLEVRITERTVSPDGSTTTYTVERPDGTTVTLTSEAELAALRESGVVLESAGGSAGGS [r12_455_JUSTAS]” the “folding stability dG unfold” value [1] was -0.571 ± 0.628 kJ/mol, the “folding stability dG unfold” value [2] was 0.948 ± 0.36 kJ/mol and the “folding stability dG unfold” value [3] was 0.607 ± 0.372 kJ/mol.

With “SAGGSAGGSMDGTVRQPPGGVWEVRARPPAVTPVLVTVVLVTVDADGNLILNPVAGYTHPDELSAGGSAGGS [r12_1027_TrMRF]” the “folding stability dG unfold” value [1] was 4.65 ± 0.31 kJ/mol, the “folding stability dG unfold” value [2] was 1.5 ± 0.134 kJ/mol and the “folding stability dG unfold” value [3] was 3.55 ± 0.322 kJ/mol.

With “SAGGSAGGSMEENKPVVTLTTVEIYIESEVDPSLGKPLNPKKITVTLTTTVPPDGSTSTSTLFSAGGSAGGS [r12_438_JUSTAS]” the “folding stability dG unfold” value [1] was 6.97 ± 0.711 kJ/mol, the “folding stability dG unfold” value [2] was 4.66 ± 0.711 kJ/mol and the “folding stability dG unfold” value [3] was 6.08 ± 0.795 kJ/mol.

In the case of “SAGGSAGGSMEEVEVFELEDGTLLVLVRVDGKEELIEIPLDDLKKLPNVKEVKIFPVKKVEKPSAGGSAGGS [r12_343_TrROS_Hall]”, the “folding stability dG unfold” value [1] is reported as 5.96 ± 0.238 kJ/mol, the “folding stability dG unfold” value [2] is reported as 3.36 ± 0.218 kJ/mol and the “folding stability dG unfold” value [3] is reported as 5.06 ± 0.36 kJ/mol.

In the case of “SAGGSAGGSMEFVEIEIEKELETEVSPDGTTTTRYRVPDGSILVVTTTHPPDGVPTPTVTLVASAGGSAGGS [r20_240_JUSTAS]”, the “folding stability dG unfold” value [1] is reported as 3.95 ± 0.314 kJ/mol, the “folding stability dG unfold” value [2] is reported as 4.84 ± 0.0879 kJ/mol and the “folding stability dG unfold” value [3] is reported as 4.52 ± 0.188 kJ/mol.

With “SAGGSAGGSMEIIGSFTFPNPNGMNIKVNVYRNPEEKKWWAKVEIWDGGKPKTHTMPLDDFLKSAGGSAGGS [r12_1063_TrROS]” the “folding stability dG unfold” value [1] was 8.63 ± 0.368 kJ/mol, the “folding stability dG unfold” value [2] was 5.13 ± 0.176 kJ/mol and the “folding stability dG unfold” value [3] was 7.25 ± 0.418 kJ/mol.

In the case of “SAGGSAGGSMEIIPPEELLARLSPEELVLVRLPTAPRLLPREELRLLPRDIPVEVEVIPRLPPSAGGSAGGS [r12_501_TrMRF]”, the “folding stability dG unfold” value [1] is reported as 9.39 ± 0.418 kJ/mol, the “folding stability dG unfold” value [2] is reported as 2.07 ± 0.962 kJ/mol and the “folding stability dG unfold” value [3] is reported as 6.27 ± 1.92 kJ/mol.

In the case of “SAGGSAGGSMEIPANIPIEEFAALIKKKGNFEVKKVGPKTFVIVSKDNKKPLVVKFDAKPGLDSAGGSAGGS [r20_236_TrMRF]”, the “folding stability dG unfold” value [1] is reported as 1.09 ± 0.628 kJ/mol, the “folding stability dG unfold” value [2] is reported as -0.147 ± 0.268 kJ/mol and the “folding stability dG unfold” value [3] is reported as 0.765 ± 0.318 kJ/mol.

For “SAGGSAGGSMEIVVPVKNPEELKAVAEELEKKGYKVEKLPDGSLKVEKPGSVIYIKGDPVPPLSAGGSAGGS [r12_204_JUSTAS]”, the “folding stability dG unfold” value [1] was 6.23 ± 0.251 kJ/mol, the “folding stability dG unfold” value [2] was 6.34 ± 0.31 kJ/mol and the “folding stability dG unfold” value [3] was 6.08 ± 0.586 kJ/mol.

For “SAGGSAGGSMEPIDLSIVEIKEELLPSGKKKYIVTIETPGKKVKKYTFPPDISIEDIKKLILNSAGGSAGGS [r20_115_JUSTAS]”, the “folding stability dG unfold” value [1] was 12.05 ± 0.109 kJ/mol, the “folding stability dG unfold” value [2] was 9.08 ± 0.46 kJ/mol and the “folding stability dG unfold” value [3] was 11.3 ± 0.502 kJ/mol.

In the case of “SAGGSAGGSMGLNVTYTVNVTHPDGTVETFPFEFDGTPEEAEEFARAIAEAHPDVKVTVTPGASAGGSAGGS [r12_268_TrMRF]”, the “folding stability dG unfold” value [1] is reported as 12.8 ± 0.155 kJ/mol, the “folding stability dG unfold” value [2] is reported as 12.8 ± 0.502 kJ/mol and the “folding stability dG unfold” value [3] is reported as 12.7 ± 0.318 kJ/mol.

With “SAGGSAGGSMGLVVRREDGTLVLFRLGEDGLEEFTVPLEDWLTVPEEFFDAIPPEEVDEATPESAGGSAGGS [r12_793_TrMRF]” the “folding stability dG unfold” value [1] was 7.93 ± 0.385 kJ/mol, the “folding stability dG unfold” value [2] was 5.87 ± 0.628 kJ/mol and the “folding stability dG unfold” value [3] was 7.06 ± 0.502 kJ/mol.

For “SAGGSAGGSMGYLTEPDISVTRTPDGTVTVTTTNTTYDPSTGKKLSTTTTTTTVTLAPDEELLSAGGSAGGS [r12_1038_JUSTAS]”, the “folding stability dG unfold” value [1] was 2.63 ± 0.218 kJ/mol, the “folding stability dG unfold” value [2] was 2.52 ± 0.234 kJ/mol and the “folding stability dG unfold” value [3] was 3.07 ± 0.46 kJ/mol.
